From patent publication US20240368260A1 (INSTITUT NATIONAL DE LA SANTE ET DE LA RECHERCHE MEDICALE, published 2024)

T1: recombinant human βIG-H3 (human, UniProt Q15582 24-683)
T1 construct: Bought recombinant protein; also called rhβIG-H3; rhbIG-H3
T1 sequence (looked up): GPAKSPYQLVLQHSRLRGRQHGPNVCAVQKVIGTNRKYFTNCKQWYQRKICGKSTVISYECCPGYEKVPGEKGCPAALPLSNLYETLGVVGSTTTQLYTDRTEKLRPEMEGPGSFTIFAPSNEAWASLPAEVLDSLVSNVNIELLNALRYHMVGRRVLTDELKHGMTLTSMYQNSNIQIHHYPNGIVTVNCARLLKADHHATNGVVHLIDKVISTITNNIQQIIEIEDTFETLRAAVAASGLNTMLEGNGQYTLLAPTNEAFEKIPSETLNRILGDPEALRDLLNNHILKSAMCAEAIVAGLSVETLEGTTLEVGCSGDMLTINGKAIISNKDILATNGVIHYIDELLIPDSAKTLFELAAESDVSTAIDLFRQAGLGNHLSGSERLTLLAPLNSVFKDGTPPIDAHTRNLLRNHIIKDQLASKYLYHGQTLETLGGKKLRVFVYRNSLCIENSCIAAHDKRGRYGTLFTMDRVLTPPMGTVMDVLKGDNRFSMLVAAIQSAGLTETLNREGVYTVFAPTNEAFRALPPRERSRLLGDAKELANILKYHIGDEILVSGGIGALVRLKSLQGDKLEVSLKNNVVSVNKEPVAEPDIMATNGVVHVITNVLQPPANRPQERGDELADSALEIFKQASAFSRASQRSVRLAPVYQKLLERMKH


Legend:
recombinant human βIG-H3 [1] = target: T1, recombinant human βIG-H3; assay: direct ELISA on coated rhβIG-H3, anti-human IgG-HRP
recombinant human βIG-H3 [2] = target: T1, recombinant human βIG-H3; assay: SPR Biacore T200, antibody captured via anti-human IgG, rhbIG-H3 as analyte, 1:1 fit, mean of n=3
Procedure: (§1) The assays were conducted using Biacore T200 instrument. It was performed in 2 steps: [0324] The first step, called suitability test, was aiming at determining the optimal conditions to run the assay: here, best sensor chip and running buffer conditions are assessed to defined best signal/noise ratio. [0325] The second step is the run itself that was performed in triplicate to ensure reproducibility and robustness of the results.
(§2) For the first step, 2 sensors and various buffer conditions were assessed using the parental and Chimeric 18B3 mAbs as a reference. It was then defined that sensor Chip C1 was the most appropriate, and buffer containing 300 mM NaCl and 0.25 mg/mL BSA was reducing the non-specific binding and increased the signal.
(§3) Rate constants (kₐ, kd) and equilibrium dissociation constants (KD) of rhbIG-H3 interaction with six antibodies determined by SPR. Experimental data were fitted to a 1:1 binding model. Listed are mean values ±SD of n=3 independent experiments.

recombinant human βIG-H3 [3] = target: T1, recombinant human βIG-H3; assay: SPR single cycle kinetics, mAb captured via anti-human IgG (Fc) on CM5, hβIG-H3 5-100 nM as analyte, 1:1 model; SCK1 Fc2
Procedure: (§4) Anti-Human IgG (Fc) antibody is chemically grafted on a CM5 sensorchip using amine coupling according to the Cytivia 22064888AF notice. Briefly, surface is first activated by injection of a NHS-EDC mixture. Then, several injections (3 on the 10 available on the kit) of Anti-Human IgG (25 μg/ml in immobilization buffer) adjusting the contact time are performed. Finally, the surfaces are deactivated with ethanolamine 1M pH 8.5.
(§5) A negative control Ab is immobilized on sensor flowcell 1 (Fc 1) and positive control (chimeric 18B3 mAB) on Fc 2. 18B3 variants Abs are immobilized on Fc3 and Fc4:
(§6) Injection of increasing concentrations (5; 10; 25; 50; 100 nM) of antigen (hβIG-H3) during 180 s is performed on each flowcell. Short dissociations are performed in RB between each antigen concentration. After injection of the highest antigen concentration (100 nM), a dissociation in RB is recorded during 3600 s. [0348] Three similar cycles with five injections of RB are carried out before the cycle of Antigen in order to perform double subtraction procedure (Blank run). [0349] Three similar cycles with five injection of RB and a dissociation time of 600 s are performed before the blank runs in order to stabilize the system (Startup run).

recombinant human βIG-H3 [4] = target: T1, recombinant human βIG-H3; assay: SPR single cycle kinetics, mAb captured via anti-human IgG (Fc) on CM5, hβIG-H3 5-100 nM as analyte, 1:1 model; SCK2 Fc2
Procedure: as §4, §5, §6

recombinant human βIG-H3 [5] = target: T1, recombinant human βIG-H3; assay: SPR Biacore T200, antibody captured via anti-mouse IgG, rhbIG-H3 as analyte, 1:1 fit, mean of n=3
Procedure: as §1, §2, §3

recombinant human βIG-H3 [6] = target: T1, recombinant human βIG-H3; assay: direct ELISA on coated rhβIG-H3
recombinant human βIG-H3 [7] = target: T1, recombinant human βIG-H3; assay: SPR single cycle kinetics, mAb captured via anti-human IgG (Fc) on CM5, hβIG-H3 5-100 nM as analyte, 1:1 model; SCK1 Fc3
Procedure: as §4, §5, §6

recombinant human βIG-H3 [8] = target: T1, recombinant human βIG-H3; assay: SPR single cycle kinetics, mAb captured via anti-human IgG (Fc) on CM5, hβIG-H3 5-100 nM as analyte, 1:1 model; SCK2 Fc3
Procedure: as §4, §5, §6

Binder	ELISA Titer (recombinant human βIG-H3 [1])	Kd (recombinant human βIG-H3 [2])	koff (recombinant human βIG-H3 [2])	kon (recombinant human βIG-H3 [2])	binding result (recombinant human βIG-H3 [6])	other results
Chimeric huIgG1 k 18B3 (antibody, V domains shown, also called ch18B3; 18B3 chim) VH: EVQLVESGGGLVKPGGSLKLSCAASGFTFSDYYMYWVRQTPEKRLEWVATISDGGIYTYYPDSVKGRFTISRDSAKNNLYLQMTSLKSDDTAMYYCVRGWDRYDSWFACWGQGTLVTVSA VL: DIVMSQSPSSLVVSAGEKVTMTCKSSQSLLYSSNQKNYLAWYRQKPGQSPKLLIYWASTRESGVPDRFTGSGSGTDFTLTISSVKAEDLAVYYCQQYYRYPYTFGGGTKLEIKR	0.03 µg/mL	0.187 nM	0.000247 s⁻¹	1.32e+06 M⁻¹ s⁻¹	–	Kd (recombinant human βIG-H3 [3]): 0.0627 nM; koff (recombinant human βIG-H3 [3]): 0.00013 s⁻¹; kon (recombinant human βIG-H3 [3]): 2.06e+06 M⁻¹ s⁻¹; Kd (recombinant human βIG-H3 [4]): 0.0854 nM; koff (recombinant human βIG-H3 [4]): 0.00016 s⁻¹; kon (recombinant human βIG-H3 [4]): 1.87e+06 M⁻¹ s⁻¹
Mouse monoclonal 18B3 (antibody, V domains shown, Mouse IgG1/k from hybridoma; also called m18B3; murine 18B3 mAb) VH: EVQLVESGGGLVKPGGSLKLSCAASGFTFSDYYMYWVRQTPEKRLEWVATISDGGIYTYYPDSVKGRFTISRDSAKNNLYLQMTSLKSDDTAMYYCVRGWDRYDSWFACWGQGTLVTVSA VL: DIVMSQSPSSLVVSAGEKVTMTCKSSQSLLYSSNQKNYLAWYRQKPGQSPKLLIYWASTRESGVPDRFTGSGSGTDFTLTISSVKAEDLAVYYCQQYYRYPYTFGGGTKLEIK	–	–	–	–	–	Kd (recombinant human βIG-H3 [5]): 0.411 nM; koff (recombinant human βIG-H3 [5]): 0.000234 s⁻¹; kon (recombinant human βIG-H3 [5]): 572000 M⁻¹ s⁻¹
H-311/L-315 (antibody, human IgG1, kappa, V domains shown) VH: QVQLVESGGGLVKPGGSLRLSCAASGFTFSDYYMYWIRQAPGKGLEWVATISDGGIYIYYADSVKGRFTISRDSAKNSLYLQMNSLRAEDTAVYYCVRGWDRYDSWFACWGQGTTVTVSS VL: EIVMTQSPATLSVSPGERATMSCRASQSLLYSSNQKNYLAWYQQKPGQAPRLLIYWASTRETGIPARFSGSGSGTEFTLTISSLQSEDFAVYYCQQYYRYPYTFGQGTKLEIKR	–	–	–	–	binds	–
Humanized 18B3 B (H330-V1/L41-V1) (antibody, human IgG1, kappa, V domains shown, also called H-330/L-41; H330/L41) VH: QVQLVESGGGVVQPGGSLRLSCAASGFTFSDYYMYWVRQAPGKGLEWVATISDGGIYKYYADSVKGRFTISRDSSKNTLYLQMNSLRAEDTAVYYCVRGWDRYDSWFACWGQGTTVTVSS VL: not shown	0.047 µg/mL	0.535 nM	0.000659 s⁻¹	1.23e+06 M⁻¹ s⁻¹	–	–
Humanized 18B3 E (H330-V1/L228-V1) (antibody, human IgG1, kappa, V domains shown, also called H330/L228) VH: QVQLVESGGGVVQPGGSLRLSCAASGFTFSDYYMYWVRQAPGKGLEWVATISDGGIYKYYADSVKGRFTISRDSSKNTLYLQMNSLRAEDTAVYYCVRGWDRYDSWFACWGQGTTVTVSS VL: DIVMTQSPLSLPVTPGEPASMSCRSSQSLLYSSNQKNYLAWYLQKPGQSPQLLIYWGSTRESGVPDRFSGSGSGTDFTLKISRVEAEDVGVYYCQQYYRYPYTFGQGTKLEIKR	0.04 µg/mL	0.476 nM	0.000583 s⁻¹	1.23e+06 M⁻¹ s⁻¹	–	–
18B3 H330-V1.2/L41-V1 (antibody, human IgG1, kappa, V domains shown, also called H-330/L-41 V1.2; H330C102S/L-41) VH: QVQLVESGGGVVQPGGSLRLSCAASGFTFSDYYMYWVRQAPGKGLEWVATISDGGIYKYYADSVKGRFTISRDSSKNTLYLQMNSLRAEDTAVYYCVRGWDRYDSWFASWGQGTTVTVSS VL: not shown	0.0038 µg/mL	–	–	–	–	Kd (recombinant human βIG-H3 [7]): 0.124 nM; koff (recombinant human βIG-H3 [7]): 0.000798 s⁻¹; kon (recombinant human βIG-H3 [7]): 6.46e+06 M⁻¹ s⁻¹; Kd (recombinant human βIG-H3 [8]): 0.169 nM; koff (recombinant human βIG-H3 [8]): 0.000659 s⁻¹; kon (recombinant human βIG-H3 [8]): 3.9e+06 M⁻¹ s⁻¹
Humanized 18B3 A (H311-V1/L41-V1) (antibody, human IgG1, kappa, V domains shown, also called H311/L41) VH: QVQLVESGGGLVKPGGSLRLSCAASGFTFSDYYMYWIRQAPGKGLEWVATISDGGIYIYYADSVKGRFTISRDSAKNSLYLQMNSLRAEDTAVYYCVRGWDRYDSWFACWGQGTTVTVSS VL: not shown	0.041 µg/mL	0.482 nM	0.000726 s⁻¹	1.5e+06 M⁻¹ s⁻¹	–	–
Humanized 18B3 D (H311-V1/L228-V1) (antibody, human IgG1, kappa, V domains shown, also called H311/L228) VH: QVQLVESGGGLVKPGGSLRLSCAASGFTFSDYYMYWIRQAPGKGLEWVATISDGGIYIYYADSVKGRFTISRDSAKNSLYLQMNSLRAEDTAVYYCVRGWDRYDSWFACWGQGTTVTVSS VL: DIVMTQSPLSLPVTPGEPASMSCRSSQSLLYSSNQKNYLAWYLQKPGQSPQLLIYWGSTRESGVPDRFSGSGSGTDFTLKISRVEAEDVGVYYCQQYYRYPYTFGQGTKLEIKR	0.046 µg/mL	0.49 nM	0.000707 s⁻¹	1.45e+06 M⁻¹ s⁻¹	–	–

Now from value to binder, other results behind:

ELISA Titer (recombinant human βIG-H3 [1])	Kd (recombinant human βIG-H3 [2])	koff (recombinant human βIG-H3 [2])	kon (recombinant human βIG-H3 [2])	binding result (recombinant human βIG-H3 [6])	Binder	other results
–	–	–	–	binds	H-169/L-315 (antibody, human IgG1, kappa, V domains shown) VH: QVQLVQSGAEVKKPGSSVKVSCKASGFTFSDYYMYWVRQAPGQGLEWVGTISDGGIYAYYAQKVQGRFTITRDSSTSTLYLELSSLRSEDTAVYYCVRGWDRYDSWFACWGQGTTVTVSS VL: EIVMTQSPATLSVSPGERATMSCRASQSLLYSSNQKNYLAWYQQKPGQAPRLLIYWASTRETGIPARFSGSGSGTEFTLTISSLQSEDFAVYYCQQYYRYPYTFGQGTKLEIKR	–
–	–	–	–	binds	H-169/L-41 (antibody, human IgG1, kappa, V domains shown) VH: QVQLVQSGAEVKKPGSSVKVSCKASGFTFSDYYMYWVRQAPGQGLEWVGTISDGGIYAYYAQKVQGRFTITRDSSTSTLYLELSSLRSEDTAVYYCVRGWDRYDSWFACWGQGTTVTVSS VL: not shown	–
–	–	–	–	binds	H-169/L-228 (antibody, human IgG1, kappa, V domains shown) VH: QVQLVQSGAEVKKPGSSVKVSCKASGFTFSDYYMYWVRQAPGQGLEWVGTISDGGIYAYYAQKVQGRFTITRDSSTSTLYLELSSLRSEDTAVYYCVRGWDRYDSWFACWGQGTTVTVSS VL: DIVMTQSPLSLPVTPGEPASMSCRSSQSLLYSSNQKNYLAWYLQKPGQSPQLLIYWGSTRESGVPDRFSGSGSGTDFTLKISRVEAEDVGVYYCQQYYRYPYTFGQGTKLEIKR	–
–	–	–	–	binds	H-330/L-315 (antibody, human IgG1, kappa, V domains shown) VH: QVQLVESGGGVVQPGGSLRLSCAASGFTFSDYYMYWVRQAPGKGLEWVATISDGGIYKYYADSVKGRFTISRDSSKNTLYLQMNSLRAEDTAVYYCVRGWDRYDSWFACWGQGTTVTVSS VL: EIVMTQSPATLSVSPGERATMSCRASQSLLYSSNQKNYLAWYQQKPGQAPRLLIYWASTRETGIPARFSGSGSGTEFTLTISSLQSEDFAVYYCQQYYRYPYTFGQGTKLEIKR	–
